For experiment [1], the target named is T1, FcγRIIa H (FcγRIIa type H, His at position 131), extracellular domain with C-terminal His tag (human, UniProt P12318 34-217).
T1 construct: extracellular domain; also called 2aH; FcgRIIa H; not shown: His tag at the C terminus
T1 sequence (looked up): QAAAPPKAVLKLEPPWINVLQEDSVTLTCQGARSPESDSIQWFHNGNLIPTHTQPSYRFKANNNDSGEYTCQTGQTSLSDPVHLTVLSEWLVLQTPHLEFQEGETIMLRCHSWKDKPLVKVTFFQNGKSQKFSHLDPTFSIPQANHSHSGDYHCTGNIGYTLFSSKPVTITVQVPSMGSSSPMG
The experiment in a line: ratio of He/Con_2aH (FcγRIIa H) to He/Con_2b (FcγRIIb), SPR relative binding. As to the method:
The heterodimerized antibodies He Abs in which one of the H chains was introduced with an alteration were assayed for their binding activities to each activating FcγR and inhibitory FcγR according to the method described in Example 4. […] The activating FcγRs in FIGS. 26, 27, 28, and 29 are FcγRIa, FcγRIIa (R), FcγRIIa (H), and FcγRIIIa, respectively.
(§1) Analysis of interaction between objective antibody and the FcγR was carried out using Biacore T100 (GE Healthcare). HBS-EP+ (GE Healthcare) was used as the running buffer, and the measurement temperature was set to 25° C. Chips produced by immobilizing the antigen peptide by the amine coupling method to a Series S Sencor Chip CM5 (GE Healthcare), or alternatively, chips produced by allowing preliminarily biotinylated antigen peptides to interact with and immobilize onto a Series S Sensor Chip SA (certified) (GE Healthcare) were used. Antibodies of interest were captured onto an antigen peptide-immobilized chip, and allowed to interact to each FcγR diluted with running buffer. To regenerate and repeatedly use the chip, the antibodies captured on the chip were washed off by reacting 10 mM glycine-HCl, pH 1.5.

Experiment [2] addresses T1, FcγRIIa H (FcγRIIa type H, His at …). Nature of the experiment: SPR (Biacore), antibody captured on antigen-peptide chip, FcγR as analyte; GpH7-A5/GpH7-B3/GpL16-k0 = 100.
The target of experiment [3] is T2, FcγRIIb, extracellular domain with C-terminal His tag (human, UniProt P31994 43-217).
T2 construct: extracellular domain; also called 2b; FcgRIIb; not shown: His tag at the C terminus
T2 sequence (looked up): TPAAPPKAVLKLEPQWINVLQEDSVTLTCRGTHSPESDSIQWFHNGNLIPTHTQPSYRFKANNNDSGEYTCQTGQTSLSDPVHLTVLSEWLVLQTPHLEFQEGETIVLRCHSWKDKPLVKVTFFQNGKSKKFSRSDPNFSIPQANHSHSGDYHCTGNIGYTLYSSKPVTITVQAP
The experiment is described as above.

Experiment [4] concerns the target T3, FcγRIIIa extracellular domain with C-terminal His tag (human, UniProt P08637 17-208).
T3 construct: extracellular domain; also called FcgRIIIa; 3a; not shown: His tag at the C terminus
The experiment in a line: SPR; He/Con_3a divided by He/Con_2b (binding to FcγRIIb is the reference). Here is the method:
as §1
(§2) The FcγR-binding activity of each antibody was assessed primarily using as an indicator the FcγR-binding activity and dissociation constant for FcγR.
A general note: Surface plasmon resonance follows binding to a sensor surface in real time, without labels.

The target of experiment [5] is T3, FcγRIIIa extracellular domain with …. Nature of the experiment: SPR (Biacore), antibody captured on antigen peptide chip, FcγR as analyte; relative binding amount. Here is the method:
as §1, §2

For experiment [6], the target named is T4, FcγRIIb extracellular domain with C-terminal His tag (human, UniProt P31994 43-217).
T4 construct: extracellular domain; also called FcgRIIb; 2b; not shown: His tag at the C terminus
T4 sequence (looked up): T2 sequence (looked up)
The description is as above. Here is the method:
as §1, §2

T3 sequence (P08637 17-208): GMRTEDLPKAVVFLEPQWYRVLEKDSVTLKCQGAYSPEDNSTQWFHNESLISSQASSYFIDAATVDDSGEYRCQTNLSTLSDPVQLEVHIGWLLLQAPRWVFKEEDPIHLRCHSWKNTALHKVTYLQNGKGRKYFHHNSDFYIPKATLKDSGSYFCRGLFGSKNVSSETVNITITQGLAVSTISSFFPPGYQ

B1: GpH7-A5/GpH7-B3 variant V266_13S/GpL16-k0 (antibody, human IgG1, kappa)
heavy 1: not shown
heavy 2: not shown
light: DIVMTQSPLSLPVTPGEPASISCQASESLVHSNRNTYLHWYLQKPGQSPQLLIYKVSNRFSGVPDRFSGSGSGTDFTLKISRVEAEDVGVYYCSQNTHVPPTFGQGTKVEIERTVAAPSVFIFPPSDEQLKSGTASVVCLLNNFYPREAKVQWKVDNALQSGNSQESVTEQDSKDSTYSLSSTLTLSKADYEKHKVYACEVTHQGLSSPVTKSFNRGEC
notes: Heterodimerized IgG1 (He Ab); mutation only in the GpH7-B3 chain; also called He Ab V266S
Take B1: in experiment [1], the “He_2aH/2b (IIaH/IIb ratio)” value is 0.5. In experiment [2], the “He/Con_2aH (relative binding activity)” value is 27 % of control. Further, in experiment [3], the “He/Con_2b (relative binding activity)” value is 54.4 % of control.

B2: GpH7-A5/GpH7-B3 variant S239_03V/GpL16-k0 (antibody, human IgG1, kappa)
heavy 1: not shown
heavy 2: not shown
light: B1 light
notes: Heterodimerized anti-glypican-3 IgG1; the substitution stands in the GpH7-B3 chain only; also called He Ab
Take B2: in experiment [4], the “He_3a/2b (IIIa/IIb)” value is 0.71 ratio. For the same molecule, in experiment [5], the He/Con_3a is 76.6 % of GpH7-A5/GpH7-B3/GpL16-k0 (=100). In addition, the He/Con_2b in experiment [6] was 108 % of GpH7-A5/GpH7-B3/GpL16-k0 (=100).

B3: GpH7-A5/GpH7-B3 variant V266_06M/GpL16-k0 (antibody, human IgG1, kappa)
heavy 1: not shown
heavy 2: not shown
light: B1 light
notes: Heterodimerized IgG1 (He Ab); mutation only in the GpH7-B3 chain; also called He Ab V266M
Turning to B3, the “He_2aH/2b (IIaH/IIb ratio)” value in experiment [1] was 0.33. Also, in experiment [2], the “He/Con_2aH (relative binding activity)” value is 83.9 % of control. For the same molecule, in experiment [3], the “He/Con_2b (relative binding activity)” value was 251 % of control.

B4: GpH7-A5/GpH7-B3 variant V266_09D/GpL16-k0 (antibody, human IgG1, kappa)
heavy 1: not shown
heavy 2: not shown
light: B1 light
notes: Heterodimerized IgG1 (He Ab); mutation only in the GpH7-B3 chain; also called He Ab V266D
With B4, in experiment [1], the “He_2aH/2b (IIaH/IIb ratio)” value turned out to be 0.63. Further, in experiment [2], the “He/Con_2aH (relative binding activity)” value is 6.4 % of control. Further, the “He/Con_2b (relative binding activity)” value in experiment [3] was 10.1 % of control.

B5: GpH7-A5/GpH7-B3 variant V266_07I/GpL16-k0 (antibody, human IgG1, kappa)
heavy 1: not shown
heavy 2: not shown
light: B1 light
notes: Heterodimerized IgG1 (He Ab); mutation only in the GpH7-B3 chain; also called He Ab V266I
As for B5, the “He_2aH/2b (IIaH/IIb ratio)” value in experiment [1] was determined as 0.69. Also, the “He/Con_2aH (relative binding activity)” value in experiment [2] is 106 % of control. For the same molecule, in experiment [3], the “He/Con_2b (relative binding activity)” value is 152 % of control.

B6: GpH7-A5/GpH7-B3 variant S239_06M/GpL16-k0 (antibody, human IgG1, kappa)
heavy 1: not shown
heavy 2: not shown
light: B1 light
notes: as for B2
Regarding B6, the “He_3a/2b (IIIa/IIb)” value in experiment [4] turned out to be 0.78 ratio. Further, the He/Con_3a in experiment [5] is 78.2 % of GpH7-A5/GpH7-B3/GpL16-k0 (=100). Besides, the He/Con_2b in experiment [6] is 101 % of GpH7-A5/GpH7-B3/GpL16-k0 (=100).

B7: GpH7-A5/GpH7-B3 variant S239_05P/GpL16-k0 (antibody, human IgG1, kappa)
heavy 1: not shown
heavy 2: not shown
light: B1 light
notes: as for B2
As for B7, in experiment [4], the “He_3a/2b (IIIa/IIb)” value is 0.15 ratio. Moreover, the He/Con_3a in experiment [5] was 14.9 % of GpH7-A5/GpH7-B3/GpL16-k0 (=100). In experiment [6], the He/Con_2b is 102 % of GpH7-A5/GpH7-B3/GpL16-k0 (=100).

B8: GpH7-A5/GpH7-B3 variant P238_16H/GpL16-k0 (antibody, human IgG1, kappa)
heavy 1: not shown
heavy 2: not shown
light: B1 light
notes: as for B2
On to B8, for which the “He_3a/2b (IIIa/IIb)” value in experiment [4] worked out at 0.27 ratio. Further, the He/Con_3a in experiment [5] was 30.7 % of GpH7-A5/GpH7-B3/GpL16-k0 (=100). Besides, the He/Con_2b in experiment [6] is 115 % of GpH7-A5/GpH7-B3/GpL16-k0 (=100).

B9: GpH7-A5/GpH7-B3 variant P238_19Q/GpL16-k0 (antibody, human IgG1, kappa)
heavy 1: not shown
heavy 2: not shown
light: B1 light
notes: as for B2
On to B9, for which the “He_3a/2b (IIIa/IIb)” value in experiment [4] worked out at 0.51 ratio. Also, the He/Con_3a in experiment [5] is 55.8 % of GpH7-A5/GpH7-B3/GpL16-k0 (=100). Also, in experiment [6], the He/Con_2b was 110 % of GpH7-A5/GpH7-B3/GpL16-k0 (=100).

B10: GpH7-A5/GpH7-B3 variant V266_14T/GpL16-k0 (antibody, human IgG1, kappa)
heavy 1: not shown
heavy 2: not shown
light: B1 light
notes: Heterodimerized IgG1 (He Ab); mutation only in the GpH7-B3 chain; also called He Ab V266T
On to B10, for which the “He_2aH/2b (IIaH/IIb ratio)” value in experiment [1] worked out at 0.53. Besides, the “He/Con_2aH (relative binding activity)” value in experiment [2] is 43.3 % of control. Besides, the “He/Con_2b (relative binding activity)” value in experiment [3] was 82.3 % of control.

B11: GpH7-A5/GpH7-B3 variant S239_18N/GpL16-k0 (antibody, human IgG1, kappa)
heavy 1: not shown
heavy 2: not shown
light: B1 light
notes: Heterodimerized IgG1 (He Ab); mutation only in the GpH7-B3 chain; also called He Ab S239N
Consider B11, for which the “He_2aH/2b (IIaH/IIb ratio)” value in experiment [1] is 0.79. The “He/Con_2aH (relative binding activity)” value in experiment [2] was 94.2 % of control. Also, the “He/Con_2b (relative binding activity)” value in experiment [3] was 119 % of control.

B12: GpH7-A5/GpH7-B3 variant V266_15Y/GpL16-k0 (antibody, human IgG1, kappa)
heavy 1: not shown
heavy 2: not shown
light: B1 light
notes: Heterodimerized IgG1 (He Ab); mutation only in the GpH7-B3 chain; also called He Ab V266Y
With B12, the “He_2aH/2b (IIaH/IIb ratio)” value in experiment [1] amounted to 0.37. The “He/Con_2aH (relative binding activity)” value in experiment [2] is 18.1 % of control. Further, the “He/Con_2b (relative binding activity)” value in experiment [3] was 49.4 % of control.

B13: GpH7-A5/GpH7-B3 variant S239_07I/GpL16-k0 (antibody, human IgG1, kappa)
heavy 1: not shown
heavy 2: not shown
light: B1 light
notes: as for B2
Consider B13, for which, in experiment [4], the “He_3a/2b (IIIa/IIb)” value stood at 0.74 ratio. For the same molecule, in experiment [5], the He/Con_3a is 79.3 % of GpH7-A5/GpH7-B3/GpL16-k0 (=100). Further, the He/Con_2b in experiment [6] was 107 % of GpH7-A5/GpH7-B3/GpL16-k0 (=100).

For the origin of these results see patent US20180155451A1 (published 2018).
